# From the RNAGym collection of RNA variant scans (doi:10.1073/pnas.2313332121)
# Fewer inactive variants are shown than the library holds.
# B1: TPR 5TU (parent)
# chain: GGAUCUUCUCGAUCUAACAAAAAAGACAAAUCUGCCACAAAGCUUGAGAGCAUCUUCGGAUGCAGAGGCGGCAGCCUUCGGUGGCGCGAUAGCGCCAACGUUCUCAACUAUGACACGCAAAACGCGUGCUCCGUUGAAUGGAGUUUAUCAUG
# Variants of: B1
# Assay: polymerase ribozyme fitness, log enrichment relative to wild type (log ratio); higher = more active; in vitro selection for triplet polymerase activity
# Method in brief: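 Input and output libraries were sequenced on Illumina after a single in vitro selection round, run in triplicate on PCR-built, transcribed mutant libraries of each subunit of a heterodimeric triplet polymerase ribozyme. Selection annealed libraries to a biotinylated primer, the partner subunit and triplets, incubated them frozen at −7 °C, then gel-excised extended constructs for streptavidin-bead capture and RT-PCR. Genotypes with ≥10 input reads and ≥1 read per output were kept. Fitness is the logarithm, taken in base 2, of genotype enrichment divided by wild-type enrichment, using inverse-variance-weighted replicate averages.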
row,Variant,polymerase ribozyme fitness (log ratio)
1,A21U A40U C85U G141A,0.05
2,C54G C96U A98G,-1.19
3,A23G C27U C125A G143U,≤ -4.2
4,C35G C54U A60U C85A,≤ -4.2
5,G58A U77C G80U U90G C93A A121G A142G,≤ -4.2
6,A16G C149G,-3.97
7,A3G C87U C132G,-4.07
8,U55G C57G A97G A106C,-3
9,C10G A19U G46A C85A C105U,≤ -4.2
10,A3U C96U A97G,0.661
11,C5G U55G C85U C99A,-2.86
12,G46C U61G G81C C114U C116G A147G,≤ -4.2
13,C18G A49C G67U G84U A107U,≤ -4.2
14,C36A U45C C95U C114U A119U,≤ -4.2
15,G46A U56G A91G U148A,≤ -4.2
16,C93A A120U,-3.4
17,C32U A41U,-3.95
18,A28U A41U C79G G86A G136A G152A,≤ -4.2
19,C57A G59U U77A C99G,≤ -4.2
20,C85A A138G,-3.24
21,G46C G86A,-1.59
22,C36A C96A G133A,≤ -4.2
23,A21U C27U C35A C57A G59C G74C G86U A89G U101G,≤ -4.2
24,C93U A137C,-4.07

row,Variant,polymerase ribozyme fitness (log ratio)
1,C10G U53C C93U A107G,≤ -4.2
2,C10G A12G A120U U135C,≤ -4.2
3,G68A G86A C87G,≤ -4.2
4,G58A G81A,-0.536
5,A52C G84U C96U U144A,≤ -4.2
6,U7G C18U A19U A28U C85A C87U A97U,≤ -4.2
7,C38A G58C C87U,-0.072
8,U4G A97U,0.0622
9,C35A A66G C87U U127C,≤ -4.2
10,U7C C85U U145A,-2.42
11,A19G C35U U53G C54A G71A U145C,-2.47
12,G83U G92A C125G A138G U151A,≤ -4.2
13,U90C C99U,≤ -4.2
14,G48A A52U C75U A91G,≤ -4.2
15,A23G A40G G50U C76A G84C,≤ -4.2
16,A16C G94U A107G C116A C132U A142G,≤ -4.2
17,A12U U102G,-3.28
18,U144G U145A,0.571
19,C35U C75A G86A A107G G140U,≤ -4.2
20,C43A C75U A106U C108U C123G G141A,≤ -4.2
21,C10G G58A G59C G65A C95G C96A A120C,≤ -4.2
22,C87U G143U,-2.69
23,G58A A64G A91C A147U,≤ -4.2
24,C14U A17G G83A C108U,≤ -4.2

row,Variant,polymerase ribozyme fitness (log ratio)
1,A20U U55A G68U C85G C105U G124A G140C,≤ -4.2
2,C93U U101A,-2.19
3,C99U A150G,-0.552
4,G25U A47G A60G C75A A91U A122U G141C A142G,≤ -4.2
5,U55G C96A C105U,-0.496
6,G83C G84U A110C,≤ -4.2
7,C105A A113U,≤ -4.2
8,A106C,-0.467
9,A17U G100A A120C A150U,≤ -4.2
10,C36A U82A A98G,-4.01
11,C14U A21G A29G C85U C116A,-4.2
12,G58C A97G A98U U145C,-0.616
13,A30C C96A U135A A137U,≤ -4.2
14,G58C C87A U109C U130G,≤ -4.2
15,A16C U101G,-0.303
16,A41C A113U C114A,≤ -4.2
17,A37U C51G G88A,≤ -4.2
18,C96U A142C,-1.15
19,U4G A40C A137G,-1.84
20,C14U C18A A19C A22G C93A A120C U139C G143U,≤ -4.2
21,U55A C76G A138C,≤ -4.2
22,U15C A19C A91U,-3.68
23,A24C A30U C43A C57U C87G,≤ -4.2
24,A49C A52C C54A G74U C76G C125U,≤ -4.2

row,Variant,polymerase ribozyme fitness (log ratio)
1,G141A U144C,-3.08
2,A24U A28U U33A A41C U55G C96U,≤ -4.2
3,C63U G141U,1.25
4,U4C U15G U77A G92U C99G,≤ -4.2
5,C38A A64G C69G C87U U134A U151C,≤ -4.2
6,U15G G84A,-1.57
7,U53A G81A C85A C131U,-4.19
8,A12U G42A C85U C99G,≤ -4.2
9,U15A U55A G88C U145G,-3.86
10,G42A G50A C76U G84U G92A A107C C116G,≤ -4.2
11,G50U C69U C99U,-3.41
12,A40G A41C A52G G71U A107G U111G U139C U146G C149A U151G,≤ -4.2
13,A91U U145A,-4
14,U7C C35U,-2.29
15,A52C A113U,-3.88
16,C10A A28G U56G C85A,≤ -4.2
17,C27U G34C C93A G117A,≤ -4.2
18,C5U A28U C51G A52C G67A G94C,≤ -4.2
19,C96U U151G,-4.05
20,G67C C93U A107C C125G,≤ -4.2
21,A17U A26C C76A G86A C96A C105G A115G,≤ -4.2
22,G58A G86U A119U,-2.06
23,C93U A119G G143U U145G,-3.92
24,U55A U78G G84U C87G C118U,≤ -4.2

row,Variant,polymerase ribozyme fitness (log ratio)
1,C10G A17C C36U G48A A64U G88C C118G,≤ -4.2
2,A16U C38A C75A C114U G143U,≤ -4.2
3,G48C C76U,-3.15
4,U44G C75U A89G,≤ -4.2
5,A22G G83C A98U C114U,-3.19
6,C87G A110C U146G C149A,≤ -4.2
7,A41U C72G U90G C99G G112U C118U,≤ -4.2
8,G84A C103G C149U,-3.35
9,U55G A73C C87A,≤ -4.2
10,A39G G58U G59C G124C G136A,≤ -4.2
11,U31C C54A C93G,≤ -4.2
12,A89G G94A G100C,≤ -4.2
13,A23U C38U,-4.06
14,A47C A122U,-1.45
15,A19U C51U G58C C85U A91U C114U C118U,≤ -4.2
16,A22G C85U C95G U135G,-3.76
17,A28U A37C C79U C87U,-3.89
18,A20U G48A G50A C76G C96G U135G,≤ -4.2
19,C32U G50A A52G G58A C87G C118G,≤ -4.2
20,U78C C87U G92A A115U,-2.33
21,A19U A24C C35U C57U A66C G86U,-4.08
22,A22G G83A A91U G100U,≤ -4.2
23,A20U A52G C75U G88A C103G A119C,≤ -4.2
24,U6A C69A G92U A98G U111C G152C,≤ -4.2

row,Variant,polymerase ribozyme fitness (log ratio)
1,A12C A52C C54U U145A,-3.53
2,A40G U56A,-1.21
3,A17U G42A G81C G86U G92C G143C,≤ -4.2
4,C38U C72U C95G,-0.675
5,G67A C114U U134G A150C,≤ -4.2
6,U55A G68A,-3.21
7,G25C C132U,-3.65
8,A19U C79A,≤ -4.2
9,A52C G70C C85U G94C C129A,≤ -4.2
10,C5U C85G U104C,-3.03
11,A20U A28U G42C G86U C93A C114U,-4.17
12,A60C U82G G86A U146G,-3.33
13,C76G G84A A122G,≤ -4.2
14,U56A G80C G92A,≤ -4.2
15,A60C A73G C96U U101G,-3.45
16,G65A C93U,-1.96
17,A17C U44G G88A C95G C103U G141C,≤ -4.2
18,C36U C99U U145A,-1.47
19,U6C A24U A40C U56A A73U C76G C129U,≤ -4.2
20,G58A C87U G100C A122C G126A G141U,≤ -4.2
21,C75U A89C C95U,-0.65
22,C18U C51U A89U C96A,-2.24
23,C5U A24G G94A C123U G140U,≤ -4.2
24,U9G C32U C38U A49C G58A A60U C87G C95U G133U A142U,≤ -4.2

row,Variant,polymerase ribozyme fitness (log ratio)
1,G50A A89U C99U,-2.94
2,A49C U55A A66U C72A C85U,≤ -4.2
3,U82A G86A A98U U134A,-3.68
4,C32G C57U C95U A142C U144G,≤ -4.2
5,C132A,-2.06
6,G11C C14G C87A A121C U144A,≤ -4.2
7,U61A A97C,-1.48
8,G42A G48U A52U C75A U90C,≤ -4.2
9,U82G,0.17
10,U56A G128C,-2.8
11,A16U A120U,-2
12,A22G U33C C35U A66C,≤ -4.2
13,G11C G74A C76U C93G A113G U145A,≤ -4.2
14,U61G C85A,-2.29
15,U55A A60U G84U C116G A119U,-2.63
16,G25U C87U C93G A138U,≤ -4.2
17,G81A C87U A97U,-1.53
18,A40U G68A C116A A137U,≤ -4.2
19,A41C U61A C76A A91U C99A A110U A150C,≤ -4.2
20,A16U A29C C35U A41C G86A A98U C114U G141U U145G,≤ -4.2
21,A26C G88U G92U G117U,≤ -4.2
22,U56A C57A U144A,-0.177
23,C18U G65A,-1.77
